From paper PMC6016244, “Escherichia coli ZipA Organizes FtsZ Polymers into Dynamic Ring-Like Protofilament Structures” (mBio, 2018) come the findings set out here.

In data set [1] the target is T1, Alexa Fluor 488-labeled FtsZ (E. coli, UniProt P0A9A6 1-383, Alexa Fluor 488 (succinimidyl ester probe, 1:10 molar ratio); labelled residues not stated).
T1 construct: Cell division protein FtsZ, Escherichia coli; wild type; Same protein as m1, with a fluorescent label; used on supported lipid bilayers; also called FtsZ-Alexa Fluor 488; FtsZ Alexa Fluor 488
T1 sequence (looked up): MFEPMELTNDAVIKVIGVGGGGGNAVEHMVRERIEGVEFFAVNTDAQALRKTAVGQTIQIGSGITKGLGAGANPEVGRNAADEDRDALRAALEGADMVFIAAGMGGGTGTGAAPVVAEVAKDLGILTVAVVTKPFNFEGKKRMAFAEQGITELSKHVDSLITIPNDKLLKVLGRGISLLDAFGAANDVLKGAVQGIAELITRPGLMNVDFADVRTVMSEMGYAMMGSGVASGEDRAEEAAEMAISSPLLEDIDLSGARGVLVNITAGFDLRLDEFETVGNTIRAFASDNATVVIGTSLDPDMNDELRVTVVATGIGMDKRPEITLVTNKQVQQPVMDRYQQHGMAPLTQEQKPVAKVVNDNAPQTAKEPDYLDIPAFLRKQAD
The data set is described as follows: self-organization assay on supported lipid bilayers, confocal and STED fluorescence microscopy; Alexa Fluor 647-labeled sZipA attached to supported bilayers of E. coli polar lipids with 0.5% NTA lipids (low density); 1 µM FtsZ-Alexa Fluor 488 added, then 2 mM GTP or 0.5 mM GMPcPP; Z-buffer. As to conditions: both partners purified.

Data set [2] deals with the molecule itself. The data set is described as follows: lipid monolayer assay with negative stain electron microscopy; sZipA (1-2 µM) held by its His6 tag on E. coli polar lipid (or DOPC) monolayers with 0.5 to 10% DGS-NTA; FtsZ 0.5 to 5 µM added, then 2 mM GTP or 0.5 mM GMPcPP; Z-buffer (50 mM Tris-HCl pH 7.5, 300 mM KCl, 5 mM MgCl2); control: FtsZ on NTA monolayers without sZipA.

B1: Alexa Fluor 647-labeled sZipA (domain or fragment)
chain: not shown
modifications: Alexa Fluor 647 (succinimidyl ester probe, 1:10 molar ratio); labelled residues not stated
notes: Cell division protein ZipA, Escherichia coli; first 25 amino acids replaced by a His6 tag; Same construct as m2, with a fluorescent label; attached to supported lipid bilayers that contain NTA lipids; also called fluorescent sZipA; not shown: His6, N-terminal, kept
On to B1, for which the binding result in data set [1] is on record as “binds”.

B2: E. coli FtsZ (natural protein, UniProt P0A9A6 1-383, looked up)
chain: T1 sequence (looked up)
notes: Cell division protein FtsZ, Escherichia coli; wild type; Unlabelled FtsZ of the lipid monolayer / electron microscopy assays; Polymerised with GTP or GMPcPP; source: plasmid pMFV56 (pET28a-FtsZ)
For B2, the binding result in data set [2] was “binds”.
